Assay results as given in patent EP4714976A1 (Sunshine Lake Pharma Co., Ltd., dated 2026).
Changes are numbered by the printed parent chain.

B1: 3A8 scFv displayed on phage (scFv)
scFv: QVQLQQSGAELVKPGASVKMSCKASGYTFTIYNIHWVRQTPGQGLEWIGLIYPDNGDTSYNQKFKAKATLTADKSSSTAYMQLSSLTSEDSAVYYCARGGFDYWGQGTSLTVSSGGGGSGGGGSGGGGSDIVMTQSQKFMSTSVGDRVSVTCKASQNVGTNVAWYQQKPGQSPKALIYSASYRYSGVPDRFTGSGSGTDFTLTISNVQAEDLADYFCQQHYSTPYTFGGGTKLEMK
B2: 3E7 scFv displayed on phage (scFv)
scFv: B1 scFv with S109T, D130N, N206G, F216Y, S222N, M235I
B3: 3F11 scFv displayed on phage (scFv)
scFv: B1 scFv with T30A, I31P, A209S, D214E, Y225F, G229S, M235I
B4: 3C7 scFv displayed on phage (scFv)
scFv: EIQLQQSGAELVKPGASVKMSCKASGYIFRNYYIHWVKRTPGQGLEWIGAIYPDNGDTSYNQRFKVKATLTADTSSSTAYMQLSSLTSEDSAVYYCARAFTYWGQGTTLTVSSGGGGSGGGGSGGGGSDIQMIQSPASLSASVGETVTITCGASENIYGALNWYQRKQGKSPQLLIYGATNLADGMSSRFSGSGSGRQYSLKISSLHPDDVATYYCQNVLSTPYTFGGGTKLEIK
B5: 1B8 scFv displayed on phage (scFv)
scFv: QIQLQQSGAELVKPGASVKMSCKASGYTFASYNLHWVKQTPGQGLEWIGLIYPENGDTSYNQKFKGKATLTADTSSTTAYIQLSSLTSEDSAVYFCARGGFDYWGQGTSLTVSSGGGGSGGGGSGGGGSDIKMTQSPASLSASVGETVTITCGASENIYGALNWYQRKQGKSPQLLIYGATNLADGMSSRFSGSGSGRQYSLKISSLHPDDVATYYCQNVLSTPYTFGGGTKLEIK
B6: 1D7 scFv displayed on phage (scFv)
scFv: QIQLQQSGAELVKPGASVKMSCKASGYTFRYYNMHWVKRTPGQGLEWIGLIYPDNGDTSYNQKFKGKATLTADTSSSTAYMQLSSLTSEDSAVYYCARGGLDYWGQGTSLTVSSGGGGSGGGGSGGGGSDIQMTQSPSSMSASLGDRITITCQATQDIVKNLNWYQQKPGKPPSFLIYYATELAEGVPSRFSGSGSGSDYSLTISNLESEDFADYYCLQFYEFPLTFGAGTKLELK
B7: 3G10 scFv displayed on phage (scFv)
scFv: EVQLQQSGPELVKPGASVKMSCKASGYTFATYNMHWVKQTTGQGLEWIGAIYPDNGDTFYNRKFKDKATLTADKSSTTAYMQLSSLTSEDSAVYYCARGDFAYWGQGTLVTVSAGGGGSGGGGSGGGGSDVLMTQSPASLSASVGETVTITCGASENIYGALNWYQRKQGKSPQLLIYGATNLADGMSSRFSGSGSGRQYSLKISSLHPDDVATYYCQNVLSTPYTFGGGTKLEMK
B8: 3B7 scFv displayed on phage (scFv)
scFv: EVQLQQSGAELVKPGASVKMSCKASGYTFRYYNMHWVKRTPGQGLEWIGLIYPDNGDTSYNQKFKGKATLTADTSSSTAYMQLSSLTSEDSAVYYCARGGFDYWGQGTTLTVSSGGGGSGGGGSGGGGSDIQMTQSPASLSASVGETVTITCGASENIYGALNWYQRKQGKSPQLLIYGATNLADGMSSRFSGSGSGRQYSLKISSLHPDDVATYYCQNVLSTPYTFGGGTKLELK
B9: 3B4 scFv displayed on phage (scFv)
scFv: B8 scFv with E10D, R30S, K38R, F101L, T134I, L140M, L235M
B10: 3C9 scFv displayed on phage (scFv)
scFv: B8 scFv with V2I, T28I, F101L, T134I, L235I
B11: 3F5 scFv displayed on phage (scFv)
scFv: B8 scFv with V2I, F101L, Q132V, M133L, L235I
B12: 3F10 scFv displayed on phage (scFv)
scFv: B8 scFv with R30S, Y31F, M34I, K38R, R39Q, G66A, T74K, I131V, Q132L, L235I
B13: 3E3 scFv displayed on phage (scFv)
scFv: QVQLQQPGAVLVKPGASVRMSCKASGYTFPYYNVHWVKRTPGQGLEWIGLIYPDNGDTSYNQKFTGKATLTADTSSSTAYMQLSSLTSEDSAVYYCARGGLDYWGQGTTLTVSAGGGGSGGGGSGGGGSDVQITQSPASLSASVGETVTITCGASENIYGALNWYQRKQGKSPQLLIYGATNLADGMSSRFSGSGSGRQYSLKISSLHPDDVATYYCQNVLSTPYTFGGGTKLEIK
B14: 2B2 scFv displayed on phage (scFv)
scFv: QLQLQQSGAELVKPGASVKMSCKASGYTFASYNLHWVKQTPGQGLEWIGLIYPENGDTSYNQKFKDKATLTADKSSTTAYIQLSSLASEDSAVYFCARGGFDYWGQGTTLTVSSGGGGSGGGGSGGGGSDIVMTQSQKFMSTSVGDRVSVTCKASQNVGTNVAWYQQKPGQSPKALIYSASYRYSGVPDRFTGSGSGTDYTLTISSVQAEDLALYYCQQHYSTPYTFGGGTKLELK
B15: 3H6 scFv displayed on phage (scFv)
scFv: QVQLQQSGAELVKPGASVKMSCKASGYTFSFYNIHWVRQTPGQGLEWIGLIYPDNGDTSYNQKFKAKATLTADKSSSTAYMQLSSLTSEDSAVYYCARGGFDYWGQGTTLTVSSGGGGSGGGGSGGGGSDIQMTQSPASLSASVGETVTITCRASENIYSYLAWYQQKQGKSPQLLVYNAKTLAEGVPSRFSGSGSGTQFSLKINSLQPEDFGSYYCQHHYGTPYTFGGGTKLEMK
B16: 3A3 scFv displayed on phage (scFv)
scFv: QVQLQQSGAELVKPGASVKMSCKASGYTFTTYNIHWVRQTPGQGLEWIGLIYPDNGDTSYNQKFKAKATLTADKSSSTAYMHLSSLTSEDSAVYYCARGGFDYWGQGTTLTVSSGGGGSGGGGSGGGGSDIVMTQSHKFMSTSVGDRVSITCKASQDVNTDVSWYQQKPGQSPKLLIYSASYRYTGVPTRFTGSGSGTDFTFTISGVQAEDLADYYCQQHYNTPYTFGGGTRLEIK
B17: 1G6 scFv displayed on phage (scFv)
scFv: EIQLQQSGAELVKPGASVKMSCKASGYTFRYYNMHWVKRTPGQGLEWIGLIYPDNGDTSYNQKFKGKATLTADTSSSTAYMQLSSLTSEDSAVYYCARGGLDYWGQGTSLTVSSGGGGSGGGGSGGGGSNIVMTQSHKFMSTSVGDRVSITCKASQDVNTDVAWYQQKPGQSPKLLIYSASYRYTGVPTRFTGSGSGTDFTFTISGVQAEDLADYYCQQHYNTPYTFGGGTKLELK
B18: 3E2 scFv displayed on phage (scFv)
scFv: EIQLQQSGAELVKPGASVKMSCKASGYTFSFYNMHWVKRTPGQGLEWIGLIYPDNGDTSYNQKFKGKATLTADTSSSTAYMQLSSLTSEDSAVYYCARGGLDYWGQGTSLTVSSGGGGSGGGGSGGGGSNIVMTQSQKFMSTSVGDRVSVTCKASQNVGTNVAWYQQKPGQSPKALIYSASYRYTGVPDRFTGSGSGTDFTFTISSVQAEDLAVYYCQQHYSTPYTFGGGTKLEIK
B19: 3E1 scFv displayed on phage (scFv)
scFv: QVQLQQPGAEVVKPGASVKMSCKASGYTFTDYYIHWVKQTPGQGLEWIGAIYPDNGDTSYNQKFKVKATLTADKSSSTAYMQLSSLTSEDSAVYYCARAFTYWGQGTLVTVSAGGGGSGGGGSGGGGSDILITQSPASLSASVGETVTITCGASENIYGALNWYQRKQGKSPQLLIYGATNLADGMSSRFSGSGSGRQYSLKISSLHPDDVATYYCQNVLSTPYTFGGGTKLEIK

Target: T1, extracellular domain of FGFR2c protein (Example 1) (UniProt P21802 22-377)
T1 construct: extracellular domain
T1 sequence (P21802 22-377): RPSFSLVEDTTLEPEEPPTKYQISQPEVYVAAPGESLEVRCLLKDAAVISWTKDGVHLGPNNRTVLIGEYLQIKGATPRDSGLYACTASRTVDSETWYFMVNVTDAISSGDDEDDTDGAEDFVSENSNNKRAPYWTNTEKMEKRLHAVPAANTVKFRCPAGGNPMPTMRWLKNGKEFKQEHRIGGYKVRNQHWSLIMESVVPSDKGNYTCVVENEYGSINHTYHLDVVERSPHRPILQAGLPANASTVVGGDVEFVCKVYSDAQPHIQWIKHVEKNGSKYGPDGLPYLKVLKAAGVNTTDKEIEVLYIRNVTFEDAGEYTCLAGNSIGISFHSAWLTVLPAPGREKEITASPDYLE
Test: phage ELISA

Binder	binding result
B1	no binding
B2	no binding
B3	no binding
B4	no binding
B5	no binding
B6	no binding
B7	no binding
B8	no binding
B9	no binding
B10	no binding
B11	no binding
B12	no binding
B13	no binding
B14	no binding
B15	no binding
B16	no binding
B17	no binding
B18	no binding
B19	no binding

Target: T1, extracellular domain of FGFR2c protein …
Test: phage ELISA
Remark: another data set of the same source

Binder	OD (450 nm) value
B1	0.065
B2	0.034
B3	0.045
B4	0.04
B5	0.082
B6	0.059
B7	0.042
B8	0.043
B9	0.042
B10	0.033
B11	0.038
B12	0.039
B13	0.033
B14	0.051
B15	0.062
B16	0.05
B17	0.073
B18	0.036
B19	0.056
